Data taken from patent publication US20190300610A1 (published 2019).
Each block holds one binder with its values, some of them ahead of it.

Key:
[1] = biological target: T1, cynomolgus macaque VISTA polypeptide (ELISA coat) (cynomolgus macaque, UniProt A0A7N9IB00 33-194); test: ELISA
T1 chain: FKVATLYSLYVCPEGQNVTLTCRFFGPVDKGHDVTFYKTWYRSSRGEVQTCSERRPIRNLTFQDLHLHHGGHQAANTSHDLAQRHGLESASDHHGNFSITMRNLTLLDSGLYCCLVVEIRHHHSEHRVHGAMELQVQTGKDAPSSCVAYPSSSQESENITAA

[2] = biological target: -; test: BLI; Figure 25B
[3] = biological target: human VISTA polypeptide (ELISA coat) (UniProt Q9H7M9 33-194); test: ELISA

EC50 [1]: 5.2 pM
B1: VSTB112 IgG1 (antibody, V domains shown)
VH: QVQLVQSGAEVKKPGSSVKVSCKASGGTFSSYAISWVRQAPGQGLEWMGGIIPIFGTANYAQKFQGRVTITADESTSTAYMELSSLRSEDTAVYYCARSSYGWSYEFDYWGQGTLVTVSS
VL: DIQMTQSPSSLSASVGDRVTITCRASQSIDTRLNWYQQKPGKAPKLLIYSASSLQSGVPSRFSGSGSGTDFTLTISSLQPEDFATYYCQQSAYNPITFGQGTKVEIKR

Kd [2]: 455000 pM
B2: mFcγRIII (receptor)
chain: ALPKAVVKLDPPWIQVLKEDMVTLMCEGTHNPGNSSTQWFHNGRSIRSQVQASYTFKATVNDSGEYRCQMEQTRLSDPVDLGVISDWLLLQTPQRVFLEGETITLRCHSWRNKLLNRISFFHNEKSVRYHHYKSNFSIPKANHSHSGDYYCKGSLGSTQHQSKPVTITVQDPATTSSISLVWYHT

EC50 [3]: 246 pM
B3: anti-VISTA clone 4M2-C12 IgG1 (antibody)
heavy: not shown
light: DIVITQTPAILSTSPGEKVTMTCRASSSVGYIHWYQQKPGSSPKPWIYATSNLASGVPARFSGSGSGTSNSLTITRVEAEDAATYYCQQWSSYPPITFGGGTKLEVKRTVAAPSVFIFPPSDEQLKSGTASVVCLLNNFYPREAKVQWKVDNALQSGNSQESVTEQDSKDSTYSLSSTLTLSKADYEKHKVYACEVTHQGLSSPVTKSFNRGEC
